Reference: article PMC8960973, “Pretransition state and apo structures of the filament-forming enzyme SgrAI elucidate mechanisms of activation and substrate specificity” (The Journal of Biological Chemistry, 2022)

T1: SgrAI restriction endonuclease (UniProt Q9F6L0 1-339)
T1 sequence: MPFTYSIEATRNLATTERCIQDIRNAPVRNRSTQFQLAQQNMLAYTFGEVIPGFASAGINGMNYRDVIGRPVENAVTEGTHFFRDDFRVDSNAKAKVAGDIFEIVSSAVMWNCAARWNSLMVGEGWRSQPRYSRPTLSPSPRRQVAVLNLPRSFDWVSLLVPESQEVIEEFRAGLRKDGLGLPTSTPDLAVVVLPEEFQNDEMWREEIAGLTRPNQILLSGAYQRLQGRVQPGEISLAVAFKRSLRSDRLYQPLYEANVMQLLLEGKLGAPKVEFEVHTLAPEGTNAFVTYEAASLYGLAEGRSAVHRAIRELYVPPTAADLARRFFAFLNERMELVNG

B1: SgrAI type II restriction endonuclease, wildtype (enzyme)
chain: MPFTYSIEATRNLATTERCIQDIRNAPVRNRSTQFQLAQQNMLAYTFGEVIPGFASAGINGMNYRDVIGRPVENAVTEGTHFFRDDFRVDSNAKAKVAGDIFEIVSSAVMWNCAARWNSLMVGEGWRSQPRYSRPTLSPSPRRQVAVLNLPRSFDWVSLLVPESQEVIEEFRAGLRKDGLGLPTSTPDLAVVVLPEEFQNDEMWREEIAGLTRPNQILLSGAYQRLQGRVQPGEISLAVAFKRSLRSDRLYQPLYEANVMQLLLEGKLGAPKVEFEVHTLAPEGTNAFVTYEAASLYGLAEGRSAVHRAIRELYVPPTAADLARRFFAFLNERMELVNG
notes: homodimer of 74 kDa; in the crystal it is DNA-free with Ca2+; also called SgrAI dimer; source: E. coli BL21 (DE3), purified (Talon resin, heparin FF, Superdex-200 SEC)
B2: 40-1 (40 bp primary site DNA) (dsDNA)
DNA 1: GATGCGTGGGTCTTCACACCGGTGGATGCGTGGGTCTTCA
DNA 2: TGAAGACCCACGCATCCACCGGTGTGAAGACCCACGCATC

How the values were obtained:
[1] = biological target: the molecule itself; assay: cryo-EM structure; run-on oligomeric filaments of SgrAI dimers bound to 40 bp primary site DNA (CACCGGTG, intact scissile phosphate); 4.9 uM SgrAI, 41 uM dsDNA, 10 mM Ca2+, room temperature 1 h; helical symmetry rise 21.2 A, twist -85.8 deg
[2] = biological target: the molecule itself; assay: crystal structure; DNA-free (apo) SgrAI with Ca2+; hanging drop, 5% PEG 4000, 0.1 M imidazole pH 6.5, 0.1 M NaCl, 5 mM Ca(OAc)2, 17 °C; two chains per asymmetric unit forming the dimer
[3] = biological target: T1, SgrAI restriction endonuclease; assay: cryo-EM structure (2.7 A); Ca2+ (sites A and B), filamentous, intact scissile phosphate; EM sample buffer not given in the material; Ca2+ in place of Mg2+; SgrAI stored after SEC in 25 mM Tris-HCl pH 8, 150 mM NaCl, 1 mM DTT; details: protein: recombinant; chain copies: 2; blunt

Row | Binder | stoichiometry N [1] | stoichiometry N [2] | binding result [3]
1 | B1 | < 10 DBDs (DNA-bound SgrAI dimers) per filament | 2 chains per dimer | 
2 | B2 |  |  | binds
